Usually Kd stands for the concentration at which binding is half-saturated. Read a low Kd as tighter binding.

This data set deals with T1, p19 (GST-p19) (Cymbidium ringspot virus (CymRSV)) (UniProt P17457).
T1 sequence: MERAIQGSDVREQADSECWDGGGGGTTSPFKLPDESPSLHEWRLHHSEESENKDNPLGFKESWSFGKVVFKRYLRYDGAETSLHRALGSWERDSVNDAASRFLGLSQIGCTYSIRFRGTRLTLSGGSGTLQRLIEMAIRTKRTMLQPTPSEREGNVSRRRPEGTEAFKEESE
Put plainly: SiNW-FET conductance, Langmuir fit. The conditions noted are these: phosphate solution (240 uM NaH2PO4, 760 uM Na2HPO4), pH 7.4, Debye length 6.1 nm, temperature not given.

Sequence “GCGACGCGGAAUACUUCGAUU / UCGAAGUAUUCCGCGUACGUU [ds-sRNA-2]” displayed a Kd of 227 nM. In other words, the sub-micromolar range. Turning to “CGUACGCGGAAUACUUCGAUU / UCGAAGUAUUCCGCGUACGUU [ds-sRNA-0]”, where the note is “5'-phosphate”, the equilibrium dissociation constant (Kd) was determined as 16 nM. As for “GCGACGCGGAAUACUUGCUUU / UCGAAGUAUUCCGCGUACGUU [ds-sRNA-3]”, the Kd came to 1140 nM.

The values above are taken from article PMC4663627.
